Positions count from the first letter of the chain named.
B1: humanized antibody AKT2 HuHd (antibody, V domains shown)
VH: QVQLVQSGAEVKKPGASVKVSCKASGYAFTSSWIHWVRQAPGQGLEWMGQIRPNSGNTYYNEKFKVRVTMTRDTSTSTVYMELSSLRSEDTAVYYCARYHYGFDYWGQGTLVTVSS
VL: DIQMTQSPSSLSASVGDRVTITCRSSQSIVHSNGNTYLEWYQQKPGKAPKLLIYKVSNRFSGVPSRFSGSGSGTDFTLTISSLQPEDFATYYCFQGAHLPWTFGQGTKVEIK
notes: Full-length humanized antibody; also called αNTSR1 (AKT2 Hu/Hd)
B2: humanized antibody AKT2 HuHu (antibody, V domains shown)
VH: B1 VH
VL: DIVMTQTPLSLSVTPGQPASISCRSSQSIVHSNGNTYLEWYLQKPGQSPQLLIYKVSNRFSGVPDRFSGSGSGTDFTLKISRVEAEDVGVYYCFQGAHLPWTFGQGTKVEIK
notes: Full-length humanized antibody; also called αNTSR1 (AKT2 Hu/Hu)
B3: αNTSR1 (AKT2 Hu/Hd) 4 seco-DUBA (antibody, V domains shown)
VH: B1 VH
VL: B1 VL
modifications: seco-DUBA payload conjugated (trimannosyl ADC); site of conjugation not given
notes: Antibody-drug conjugate of the humanized antibody AKT2 HuHd with seco-DUBA; also called trimannosyl anti-NTSR1 ADC of AKT2 HuHd
B4: αNTSR1 (AKT2 Hu/Hu) 4 seco-DUBA (antibody, V domains shown)
VH: B1 VH
VL: B2 VL
modifications: seco-DUBA payload conjugated (trimannosyl ADC); site of conjugation not given
notes: Antibody-drug conjugate of the humanized antibody AKT2 HuHu with seco-DUBA; also called trimannosyl anti-NTSR1 ADC of AKT2 HuHu
B5: humanized antibody 7C3 HuHd (antibody, V domains shown)
VH: B1 VH with A28T, H100Y
VL: B1 VL with A97S
notes: Full-length antibody from the human Fc vectors
B6: humanized 7C3 IMGT (7C3 HuHu) (antibody, V domains shown)
VH: B1 VH with A28T, H100Y
VL: B2 VL with A97S
notes: Full-length antibody with human IgG1 / kappa constant regions (plasmids pTCAEDH 7C3 HUVH IgG1 and pTCAEDL 7C3 HUVL Kappa)
B7: mouse-human chimera antibody AKT2 (antibody, V domains shown)
VH: QVQLQQPGSVLVRPGASVKLSCKASGYAFTSSWIHWAKQRPGQGLEWIGQIRPNSGNTYYNEKFKVKATLTVDTSSSTAYVDLSSLTSEDSAVYYCARYHYGFDYWGQGTLVTVSS
VL: DVLMTQTPLSLPVSLGDQASISCRSSQSIVHSNGNTYLEWYLQKPGQSPKLLIYKVSNRFSGVPDRFSGSGSGTDFTLKISRVEAEDLGVYYCFQGAHLPWTFGGGTKLEIK
notes: Mouse variable domains on human constant regions; also called chimera AKT2 mAb; αNTSR1 (AKT2)
B8: αNTSR1 (AKT2) 4 seco-DUBA (antibody, V domains shown)
VH: B7 VH
VL: B7 VL
modifications: seco-DUBA payload conjugated (trimannosyl ADC); site of conjugation not given
notes: Antibody-drug conjugate of the mouse-human chimera antibody AKT2 with seco-DUBA; also called trimannosyl anti-NTSR1 ADC of AKT2
B9: mouse-human chimera antibody 7C3 MM (antibody, V domains shown)
VH: B7 VH with A16D, K19M, A28T, L45P, H100Y, L111T
VL: B7 VL with A97S
notes: Mouse 7C3 variable domains sub-cloned into the human Fc chimera expression vectors pTCAEDH and pTCAEDL; The humanized plasmids are named IgG1 and Kappa; also called m7C3; mAb 7C3 MM

Tests used:
[1] = biological target: NTSR1 linear L2-biotin protein (human) (UniProt P30989); test: ELISA titration on NTSR1, anti-human IgG-HRP, OD450 minus OD650
[2] = biological target: NTSR1 protein (UniProt P30989 1-418, limits assumed); test: SPR, Biacore T200, NTSR1 protein on CM5 chip, multi-cycle kinetics, 25 C
Procedure: To know the binding kinetics differences among individual anti-NTSR1 antibodies, surface plasmon resonance (SPR) measurement with BIACORE™ T200 (CYTIVA® Inc.) was used as previously described (Karlsson & Falt, (1997) J. Immunol Methods 200:121-133). Carboxymethylated dextran biosensor chips (CM5, CYTIVA® Inc.) were activated with N-ethyl-N′-(3-dimethylaminopropyl)-carbodiimide hydrochloride (EDC) and N-hydroxysuccinimide (NHS) according to the supplier's instructions. NTSR1 protein was diluted with 10 mM sodium acetate, pH 4.0, into 5 μg/ml before injection at a flow rate of 10 μL/minute to achieve approximately 1500 response units (RU) of coupled protein followed by the injection of 1 M ethanolamine to block unreacted groups. For kinetics measurements, two-fold serial dilutions of anti-NTSR1 mAb (0.3125 nM to 40 nM) were injected in HBS-EP+BIACORET™ running buffer provided by the manufacturer (CYTIVA® Inc.) at 25° C. at a flow rate of 30 μL/min, and binding responses on the NTSR1 protein were corrected by subtraction of responses on a blank flow cell. Association rates (kₒₙ or Kₐ) and dissociation rates (koff or Kd) were calculated using a simple one-to-one Langmuir binding model with separate fittings of kₒₙ and koff. (CYTIVA® BIACORET™ Insight Evaluation Software).

[3] = biological target: T1, NTSR1 on FaDu cells (human, UniProt P30989 1-418); test: flow cytometry on FaDu cells (internalization assay), 10 µg/mL ADC on ice for 60 min, anti-human IgG PE [left panel (Trimannosyl anti-NTSR1 ADC]
T1 construct: whole, on cells; Endogenous NTSR1 on the human FaDu cell line; also called NTSR1 expressing cells, FaDu
Procedure: FaDu cells were trypsinized, and then harvested and resuspended in FAC buffer. Controls: secondary Ab anti-human IgG PE (1:200) was added to the FaDu cells. The cells were incubated at 4° C. for time intervals of 0, 0.5, 2, 5 and 24 hours, and then washed by 1 mL of FACS buffer. The supernatant was discarded. Testing groups: FaDu cells were pre-incubated with 10 μg/mL ADCs of trimannosyl and anti-NTSR1 antibodies αNTSR1 (AKT2), αNTSR1 (AKT2 Hu/Hu) and αNTSR1 (AKT2 Hu/Hd) in FACS buffer on ice for 60 min, washed three times with FACS buffer, and then incubated at 37° C. for time intervals of 0, 0.5, 2, 5 and 24 hours.

[4] = biological target: T1, NTSR1 on FaDu cells; test: flow cytometry on FaDu cells, antibody at 10 ug/ml
Procedure: (§1) Anti-NTSR1 antibodies were used to detect cells that express NTSR1 on the cell surfaces, for example using FACS. NTSR1 expressing cells, FaDu, were harvested and re-suspended in 5% PBS/FBS buffer. The cells (1×10⁵) were incubated with anti-NTSR1 antibody (1-10 μg/ml) or negative control, at 4° C. for 1 hr, and then stained with goat anti-human IgG FITC conjugate ( 1/1000) at 4° C. for 1 hr. For each assay, two additional controls were prepared; one without primary antibody and the other one with absence of any antibody. All treated samples were analyzed with […]™ (BECTON DICKINSON®) and the results were processed by […]™ software (BECTON DICKINSON®).

[5] = biological target: T1, NTSR1 on FaDu cells; test: flow cytometry on FaDu cells, antibody at 1 ug/mL
Procedure: as §1

[6] = biological target: NTSR1 linear L2-biotin protein (human) (UniProt P30989); test: ELISA on coated NTSR1 linear L2-biotin protein, non-linear regression
[7] = biological target: NTSR1 linear L2-biotin protein (human) (UniProt P30989); test: ELISA titration, plate coated with NTSR1 linear L2-biotin protein, anti-human IgG-HRP

T1 sequence (P30989 whole entry): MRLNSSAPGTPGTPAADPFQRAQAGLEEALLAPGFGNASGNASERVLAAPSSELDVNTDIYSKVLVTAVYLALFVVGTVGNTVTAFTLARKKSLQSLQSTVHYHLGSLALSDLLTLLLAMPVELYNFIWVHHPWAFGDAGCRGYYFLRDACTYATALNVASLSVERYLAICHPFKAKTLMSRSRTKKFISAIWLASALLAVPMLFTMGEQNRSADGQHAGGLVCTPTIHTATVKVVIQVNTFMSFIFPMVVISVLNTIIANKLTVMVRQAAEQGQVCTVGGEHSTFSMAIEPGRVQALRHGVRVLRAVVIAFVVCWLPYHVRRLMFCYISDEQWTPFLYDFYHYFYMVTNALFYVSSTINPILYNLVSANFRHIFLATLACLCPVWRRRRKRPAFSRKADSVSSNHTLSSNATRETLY
Sequence of NTSR1 protein (P30989 whole entry): as above

Row | Binder | EC50 (read off the curve) [1] [nM] | Kd [2] [nM] | koff [2] [s⁻¹] | kon [2] [M⁻¹ s⁻¹] | binding result [3] | % Flow binding (10 ug/ml) [4] [%] | % Flow binding (1 ug/mL) [5] [%] | also measured
1 | B1 | 0.06 | 1.43 | 0.000657 | 461000 |  |  |  | 
2 | B2 | 0.06 | 1.03 | 0.000808 | 788000 |  |  |  | 
3 | B3 |  |  |  |  | binds |  |  | 
4 | B4 |  |  |  |  | binds |  |  | 
5 | B5 |  |  |  |  |  | 99 | 73 | 
6 | B6 |  |  |  |  |  | 98 | 64 | Kd [6]: 0.294 nM; EC50 (read off the curve) [7]: 0.03 nM
7 | B7 | 0.06 | 1.61 | 0.000656 | 407000 |  |  |  | 
8 | B8 |  |  |  |  | binds |  |  | 
9 | B9 |  |  |  |  |  | 91 | 31 | Kd [6]: 0.676 nM; EC50 (read off the curve) [7]: 0.07 nM

Reference: patent US20240218062A1 (DEVELOPMENT CENTER FOR BIOTECHNOLOGY, published 2024)
